# Measured values: US20210147541A1 (Kyowa Kirin, published 2021)
# Where two headings read alike, the source gives them in different places.
# T1: mouse CADM3 (mouse, UniProt Q99N28 23-396)
# T1 construct: Full-length gene expressed transiently on Expi293F cells; also called mouse CADM3/Expi293F cells; Mouse CADM3-expressing cells
# T1 sequence: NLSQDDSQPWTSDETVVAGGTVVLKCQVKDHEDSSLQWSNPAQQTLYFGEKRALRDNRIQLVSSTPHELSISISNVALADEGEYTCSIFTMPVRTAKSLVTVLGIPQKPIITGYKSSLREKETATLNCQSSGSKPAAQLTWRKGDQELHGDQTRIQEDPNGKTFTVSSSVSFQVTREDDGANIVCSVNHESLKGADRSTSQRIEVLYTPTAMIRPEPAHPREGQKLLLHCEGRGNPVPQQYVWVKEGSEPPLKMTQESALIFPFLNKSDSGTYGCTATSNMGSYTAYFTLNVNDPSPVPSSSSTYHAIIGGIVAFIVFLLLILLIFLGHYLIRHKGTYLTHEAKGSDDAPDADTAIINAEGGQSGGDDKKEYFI
# Key:
# mouse CADM3 [1] = target: T1, mouse CADM3; assay: flow cytometry, 10 ug/mL, mouse CADM3/Expi293F vs parent Expi293F cells
# Procedure: (§1) After washing with SB, the cells were suspended in SB, and the fluorescence intensity of each cell was measured using a flow cytometer FACS CANTO II (manufactured by Becton, Dickinson and Company). Note that as a negative control, 10 μg/mL of the anti-AVM antibody was used.
# (§2) The detection results were analyzed, and a mean fluorescence intensity (MFI) was calculated using a geometric mean. Further, with respect to the MFI when the concentration of each antibody was 10 μg/mL, the ratio of the MFI (mean fluorescence intensity ratio) between the human CADM3/Expi293F cells and the Expi293F cells (parent cell line) was calculated.
# Further, also with respect to AVM IgG4PE(R409K)_iCADM3_3R1-L5 dVHH, AVM IgG4PE(R409K)_iCADM3_3R1-L8 dVHH, AVM IgG4PE(R409K)_iCADM3_3R1-L10 dVHH, and AVM IgG4PE(R409K)_iCADM3_3R1-L11 dVHH, reactivity with the Expi293F cells, the human CADM3/Expi293F cells, and the mouse CADM3/Expi293F cells was analyzed by the same procedure, and the results are shown in Table 5.
# mouse CADM3 [2] = target: T1, mouse CADM3; assay: flow cytometry, mouse CADM3/Expi293F vs parent Expi293F cells
# mouse CADM3 [3] = target: T1, mouse CADM3; assay: flow cytometry, 10 ug/mL, mouse CADM3/Expi293F vs parent Expi293F cells; remark: listed apart in the source
# Procedure: as §1, §2
# (§3) With respect to the produced humanized anti-CADM3 VHH-Fc antibodies, reactivity with Expi293F cells, human CADM3/Expi293F cells, and mouse CADM3/Expi293F cells was analyzed by the same procedure as in Example 3.
# mouse CADM3 [4] = target: T1, mouse CADM3; assay: as above; remark: listed apart in the source
# mouse CADM3 [5] = target: T1, mouse CADM3; assay: as above; remark: listed apart in the source
# Procedure: as §1, §2, §3
binder,measurement,setting,value
"anti-AVM antibody (antibody, V domains shown, Negative control; also called chimeric anti-Avermectin (AVM) antibody; anti-AVM-IgG4 antibody) VH: EVQLVESGGGLVQPGRSLKLSCAASGFTFSNYAMAWVRRAPTKGLEWVASISNGGGNTYYRDSVKGRFTISRDDAKNTLYLQMDSLRSEDTATYYCARHGNYIYYGSFFDYWGQGVMVTVSS VL: QFVLSQPNSVSTNLGSTVKLSCKRSTGNIGSNYVSWYQQHEGRSPTTMIYRDDKRPDGVPDRFSGSIDRSSDSALLTINNVQTEDEADYFCQSYSSGINIFGGGTKLTVLG",Mean fluorescence intensity ratio,mouse CADM3 [1],1.15
same,binding result,mouse CADM3 [2],no binding (tested: 10 ug/mL)
same,Mean fluorescence intensity ratio,mouse CADM3 [3],1.02
same,Mean fluorescence intensity ratio,mouse CADM3 [4],1.07
same,Mean fluorescence intensity ratio,mouse CADM3 [5],1.02
